Targets include γ-synuclein (UniProt O76070 1-127); β-synuclein (UniProt Q16143 1-134); mouse α-synuclein (mouse, UniProt O55042 1-140).
Holding throughout (test): filter retardation assay

Sequence of γ-synuclein (O76070 whole entry): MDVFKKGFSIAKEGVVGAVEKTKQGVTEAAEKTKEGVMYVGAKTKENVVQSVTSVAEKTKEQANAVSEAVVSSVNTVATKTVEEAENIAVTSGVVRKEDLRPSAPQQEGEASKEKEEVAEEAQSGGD
Sequence of β-synuclein (Q16143 whole entry): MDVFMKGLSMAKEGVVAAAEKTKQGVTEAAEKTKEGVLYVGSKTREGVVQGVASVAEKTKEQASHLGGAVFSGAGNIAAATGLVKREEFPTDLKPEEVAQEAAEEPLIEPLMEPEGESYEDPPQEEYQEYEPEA
Description for mouse α-synuclein: (§1) Filter retardation assay was performed using a Minifold 48 slots (GE Healthcare Life Sciences). Each protein (50 μl) at a final concentration of 1 μg/ml was loaded into each slot on a nitrocellulose membrane that has been pre-soaked in PBS. Samples were allowed to absorb onto the nitrocellulose membrane and then slots were washed with 1 ml of PBS. Membranes were then probed with relevant antibodies, and developed with SuperSignal West Pico Chemiluminescent Substrate Kit.
Description for β-synuclein: as §1
Description for γ-synuclein: as §1

B1: monoclonal antibody 4B1 produced by hybridoma 4B1 (ATCC Patent Deposit Number PTA-127017) (antibody, mouse IgG1, kappa, V domains shown)
VH: EVKLVESGGGLVQPGGSLKLSCAASGITFSSYTMSWVRQTPEKRLEWVGYISNGGGRTYYPDTVKGRFTISRDNAKNTLYLQMSSLKSEDTAMYYCARQITTAMGYYYAMDYWGQGTSVTVSS
VL: DVVMTQTPLSLPVSLGDQASISCRSSQSLVHSNGNTYLHWYLQKPGQSPKLLISKVSNRFSGVPDRFSGSGSGTDFTLKISRVEAEDLGVYFCSQSTHVPLTFGAGTKLELKR
notes: also called mAb 4B1; 4E1
For B1, the binding result with γ-synuclein is on record as “no binding”; with β-synuclein, “no binding”; with mouse α-synuclein it was “binds”.
